# According to paper PMC4648099:
# “And” between values parts separate entries of the source, which are not always exact repeats. Equal values may be shown once.
# Target: thrombin (alpha-thrombin) (UniProt P00734+P00734)
# Experiment: competition (FAM fluorescence displacement)
# Conditions: G8 replaced by 5-nitroindole (N at position 8); Fluorescence assays: 10 mM sodium cacodylate pH 7.2, 100 mM KCl, 20 °C, 20 nM FAM-aptamer (100 nM thrombin in displacement); EMSA: 1xTBE pH 8.3, 100 mM KCl …
sequence,measurement,value
GGTTGGTNTGGTTGG [TBA-N8],Kd,2.3 nM and 1.7 nM
